Positions count from the first letter of the chain named. One block for each binder: values may come before it.
What was measured:
Test in all cases: cell-based or functional assay
[1] = biological target: human CCR8 (P51685_CCR8_HUMAN) (human, UniProt P51685 1-355)
human CCR8 [2] = biological target: human CCR8 (human, UniProt P51685 1-355)
human CCR8 [3] = biological target: T1, human CCR8 (human, UniProt P51685 1-355); remark: listed apart in the source
human CCR8 [4] = biological target: T1, human CCR8; remark: listed apart in the source
human CCR8 [5] = biological target: T1, human CCR8; remark: listed apart in the source
human CCR8 [6] = biological target: human CCR8 (human, UniProt P51685 1-355); remark: listed apart in the source
human CCR8 [7] = biological target: T1, human CCR8; remark: listed apart in the source
human CCR8 [8] = biological target: T1, human CCR8; remark: listed apart in the source

B1: TPP-17578 (497A-M128-B10-1-hIgG1Lambda), WT (antibody, V domains shown)
VH: EVQLLESGGGLVQPGGSLRLSCAASGFTFSNAWMSWVRQAPGKGLEWVSGINWNGGSTGYADSVKGRFTISRDNSKNTLYLQMNSLRAEDTAVYYCVRTYSGHYGPYFDNWGQGTLVTVSS
VL: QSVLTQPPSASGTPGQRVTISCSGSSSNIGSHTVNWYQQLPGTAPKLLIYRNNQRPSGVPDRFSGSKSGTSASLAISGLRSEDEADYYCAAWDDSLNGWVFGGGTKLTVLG
ADCC EC50, activated Tregs + NK92v, Donor 1730 [1]: 197 µM | ADCC Max Response, activated Tregs + NK92v, Donor 1213 [1]: 5% | ADCC Max Response, activated Tregs + NK92v, Donor 1730 [1]: 8%

B2: TPP-17578 (antibody, human IgG1, lambda, V domains shown)
VH: B1 VH
VL: not shown
Ca flux assay IC50 (nM), block of signaling induced by CCL1 at 80 ng/ml; CHO cells expressing human CCR8 (human CCR8 [2]): 4.53 nM

B3: TPP-19546 (17578-gl33-hIgG1Lambda), afucosylated (antibody, V domains shown)
VH: B1 VH with N31S, N52S, N54S, V97A, N110Y
VL: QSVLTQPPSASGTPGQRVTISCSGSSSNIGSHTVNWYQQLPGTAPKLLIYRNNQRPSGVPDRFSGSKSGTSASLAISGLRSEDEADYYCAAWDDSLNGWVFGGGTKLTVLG
modifications: afucosylated (no fucose on the N-glycan at N297)
ADCP Max Response (%); activated human Tregs donor 1212 + M2c macrophages (human CCR8 [3]): 20% | ADCP EC50 (pM); activated human Tregs donor 1163 + M2c donor 2 (human CCR8 [4]): 404 pM | ADCP Max Response (%); activated human Tregs donor 1163 + M2c donor 2 (human CCR8 [4]): 18% | ADCP Max Response (%); activated human Tregs donor 1163 + M2c donor 1 (human CCR8 [5]): 15%

B4: TPP-19546, afucosylated (antibody, human IgG1, lambda, V domains shown)
VH: B1 VH with N31S, N52S, N54S, V97A, N110Y
VL: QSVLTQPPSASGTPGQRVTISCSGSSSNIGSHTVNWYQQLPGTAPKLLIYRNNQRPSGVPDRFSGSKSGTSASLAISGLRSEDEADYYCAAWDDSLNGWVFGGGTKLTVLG
modifications: afucosylated (no fucose on the N-glycan at N297)
ADCC Max Response (%); activated human Tregs (Donor 1100) as target cells, NK92v effector cells (human CCR8 [6]): 54% | ADCC hTreg EC50 (pM); activated human Tregs (Donor 1100) as target cells, NK92v effector cells (human CCR8 [6]): 8840 pM

The remaining lines, values ahead:

ADCP EC50 (pM); activated human Tregs donor 1163 + M2c donor 2 (human CCR8 [4]): 162 pM | ADCP Max Response (%); activated human Tregs donor 1163 + M2c donor 2 (human CCR8 [4]): 27% | ADCP EC50 (pM); activated human Tregs donor 1163 + M2c donor 1 (human CCR8 [5]): 130 pM | ADCP Max Response (%); activated human Tregs donor 1163 + M2c donor 1 (human CCR8 [5]): 27%
B5: TPP-21045 (17578-gl79-hIgG1-wt-Lambda), wild type (antibody, V domains shown)
VH: B1 VH with N31S, N52S, N54S, D62L, V97A, Y107F, N110Y
VL: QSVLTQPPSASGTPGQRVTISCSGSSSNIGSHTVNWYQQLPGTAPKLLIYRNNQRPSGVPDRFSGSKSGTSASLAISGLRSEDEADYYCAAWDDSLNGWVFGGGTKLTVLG

ADCP EC50 (pM); activated human Tregs donor 1212 + M2c macrophages (human CCR8 [3]): 128 pM | ADCP Max Response (%); activated human Tregs donor 1212 + M2c macrophages (human CCR8 [3]): 32% | ADCP EC50 (pM); activated human Tregs donor 1212 + M2c donor 4 (human CCR8 [7]): 10.7 pM | ADCP Max Response (%); activated human Tregs donor 1212 + M2c donor 4 (human CCR8 [7]): 24% | ADCP EC50 (pM); activated human Tregs donor 1212 + M2c donor 3 (human CCR8 [8]): 23 pM | ADCP Max Response (%); activated human Tregs donor 1212 + M2c donor 3 (human CCR8 [8]): 14%
B6: TPP-20950 (18206-gl-42-hIgG1wt-Lambda), afucosylated (antibody, V domains shown)
VH: EVQLLESGGGLVQPGGSLRLSCAASGFTFSSYGMHWVRQAPGKGLEWVSAIKWGGGSHGYADSVKGRFTISRDNSKNTLYLQMNSLRAEDTAVYYCARGHHSGKDGRFFDYWGQGTLVTVSS
VL: QSVLTQPPSVSGAPGQRVTISCTGSSSNIGAGYNVHWYQQLPGTAPKLLIYTNNRRPSGVPDRFSGSKSGTSASLAISGLRSEDEADYYCAAWDASLSGWVFGGGTKLTVLG
modifications: afucosylated (no fucose on the N-glycan at N297)

ADCC Max Response (%); activated human Tregs (Donor 1100) as target cells, NK92v effector cells (human CCR8 [6]): 97% | ADCC hTreg EC50 (pM); activated human Tregs (Donor 1100) as target cells, NK92v effector cells (human CCR8 [6]): 9.51 pM
B7: TPP-20950, afucosylated (antibody, human IgG1, lambda, V domains shown)
VH: B6 VH
VL: B6 VL
modifications: afucosylated (no fucose on the N-glycan at N297)

ADCC Max Response (%); activated human Tregs (Donor 1100) as target cells, NK92v effector cells (human CCR8 [6]): 91% | ADCC hTreg EC50 (pM); activated human Tregs (Donor 1100) as target cells, NK92v effector cells (human CCR8 [6]): 5.82 pM
B8: TPP-20955, afucosylated (antibody, human IgG1, lambda, V domains shown)
VH: B6 VH with S102K, K104Y
VL: B6 VL
modifications: afucosylated (no fucose on the N-glycan at N297)

ADCP EC50 (pM); activated human Tregs donor 1212 + M2c macrophages (human CCR8 [3]): 408 pM | ADCP Max Response (%); activated human Tregs donor 1212 + M2c macrophages (human CCR8 [3]): 29% | ADCP EC50 (pM); activated human Tregs donor 1212 + M2c donor 4 (human CCR8 [7]): 13.2 pM | ADCP Max Response (%); activated human Tregs donor 1212 + M2c donor 4 (human CCR8 [7]): 23% | ADCP EC50 (pM); activated human Tregs donor 1212 + M2c donor 3 (human CCR8 [8]): 14 pM | ADCP Max Response (%); activated human Tregs donor 1212 + M2c donor 3 (human CCR8 [8]): 13%
B9: TPP-20955 (18206-gl-47-hIgG1wt-Lambda), afucosylated (antibody, V domains shown)
VH: B6 VH with S102K, K104Y
VL: B6 VL
modifications: afucosylated (no fucose on the N-glycan at N297)

ADCP EC50 (pM); activated human Tregs donor 1212 + M2c donor 4 (human CCR8 [7]): 563 pM | ADCP Max Response (%); activated human Tregs donor 1212 + M2c donor 4 (human CCR8 [7]): 23% | ADCP EC50 (pM); activated human Tregs donor 1163 + M2c donor 2 (human CCR8 [4]): 300 pM | ADCP Max Response (%); activated human Tregs donor 1163 + M2c donor 2 (human CCR8 [4]): 36% | ADCP EC50 (pM); activated human Tregs donor 1163 + M2c donor 1 (human CCR8 [5]): 766 pM | ADCP Max Response (%); activated human Tregs donor 1163 + M2c donor 1 (human CCR8 [5]): 44% | ADCP EC50 (pM); activated human Tregs donor 1212 + M2c donor 3 (human CCR8 [8]): 163 pM | ADCP Max Response (%); activated human Tregs donor 1212 + M2c donor 3 (human CCR8 [8]): 14%
B10: TPP-20965 (18206-gl-58-hIgG1wt-Lambda), afucosylated (antibody, V domains shown)
VH: B6 VH with H58T
VL: B6 VL
modifications: afucosylated (no fucose on the N-glycan at N297)

Reference: patent publication US20240376218A1 (published 2024)
